Target: prototypic SARS-CoV-2 RBD (residues 319-541) (SARS-CoV-2, prototype (GISAID …, UniProt P0DTC2))
Test: SPR
Settings: both partners purified

B1: S304 antibody (IgG1) (antibody, V domains shown)
VH: EVQLVESGGGLVQPGGSLRLSCAASGFTFSSYDMHWVRQTTGKGLEWVSTIGTAGDTYYPDSVKGRFTISREDAKNSLYLQMNSLRAGDTAVYYCARGDSSGYYYYFDYWGQGTLLTVSS
VL: DIQMTQSPSSLSAAVGDRVTITCRASQSIGSYLNWYQQKPGKAPKLLIYAASSLQSGVPSRFSGSGSGTDFTLTISSLQPEDFAIYYCQQSYVSPTYTFGPGTKVDIK
notes: IgG1
Q: How did the Kd turn out when B1 was run?
A: 5.61 nM
